Reference: patent US20260226143A1

Biological target: soluble Aβ oligomers (human)
Experiment: cell-based or functional assay

human IgG isotype control antibody
Mean (Aβ spots per neuron), Isotype Control 1:50 (Aβ spots per neuron): 58.7
